From the DeepSol protein solubility set

Test: soluble on expression in E. coli; label from the status in PepcDB or PDB records

| Sequence | soluble on expression in E. coli |
| --- | --- |
| DRILAQERLCRSEERYRLLFEEMMSGCALHELICDRDGNPADYRFLAVNGAFERMTGLRAADIVGKTVLEVMPGTERHWIERYGDVALSGRSAEFEEYAGAIGRYYSVRAYCPERGKFAAVFNDIT | not soluble |
| MILINKRAEKQDYQTILAIWEKSVIVTHDFLTAEDRQFYKEQIPLFLDNVELFLWFAGEEVIGFSGTSERELDMLFLDPVATGNGYGSQILGWLIENKRINLVDVNEQNENATRFYLKHGFVVSSRSDLDGFGKPYPILQLQLKERVNGV | soluble |
| MFDILMYLFENYVHSEVELLVDEDELTKELTRAGFHQSEILKALTWLERLAELQEGDKPYLCNHDQHSFRIYTKDEMEKLDVECRGFLLFLEQVKVLNVETREMVIDRVMELDEPALILEDLKWVILMVLFNAPGHESAYEQMEDLIFEQPEEGRLHS | soluble |
| MTNMRQVLKTDRLVLEPQSMARFDQWFAMERQRDEAGHRDLTEDQAWLRLCARQGMWDAYACGFYYLLDPVSGEMRGEAGFQFRRRGFGPGFDNHPEAAWAVASAHQGRGLAAEAMQALLAHHDRSSGRQRVVALIARSNLPSLRLAERLGFRGYSDVAFDGAAHLLLERAG | soluble |
| MGSDKIHHHHHHMKYVVVSGGVISGIGKGVLASSTGMLMKTLGLKVTSIKIDPYMNIDAGTMSPLEHGECFVLDDGGETDLDLGNYERYLGVTLTKDHNITTGKIYSHVIAKERKGDYLGKTVQIVPHLTNAIQDWIERVAKIPVDDTGMEPDVCIIELGGTVGDIESAPFVEALRQFQFKVGKENFALIHVSLVPVIHGEQKTKPTQAAIKGLRSLGLVPDMIACRCSETLDKPTIDKIAMFCHVGPEQVVNVHDVNSTYHVPLLLLEQKMIDYLHARLKLDEISLTEEEKQRGLELLSKWKATTGNFDESMETVKIALVGKYTNLKDSYLSVIKALEHSSMKCRRKLDIKWVEATDLEPEAQESNKTKFHEAWNMVSTADGILIPGGFGVRGTEGMVLAARWARENHIPFLGVCLGLQIATIEFTRSVLGRKDSHSAEFYPDIDEKNHVVVFMPEIDKETMGGSMRLGLRPTFFQNETEWSQIKKLYGDVSEVHERHRHRYEINPKMVDELENNGLIFVGKDDTGKRCEILELKNHPYYIATQYHPEYTSKVLDPSKPFLGLVAASAGILQDVIEGKYDLEAGENKFNF | not soluble |
| MKVEKFKVLLYLKKSGLDKNGKAPIMGRITLNRTMAQFGCKLSCTPKLWNPRESRLDGKSKEAVEVNAKIDKLLLAINSAYESLVERKTDFDAKAIKDLFQCSADTQMTLLKQLDAIIADIESRIGIDYKKGTLPNYQYTRLTLGLFVKKRYGTDDVAFGELDEQFIREYMDFCLDERGLALDTVRHYLAILKKTCRIAFKAGHSERYHFMHFKLPQKKENPPKALTREDFLKIRDLEIPERRKSLALTRDLFLFACYTGTAYADTVSITEENLFRDEEGSLWLKYHRKKNKMLARVKLLPEALAMLEKYKDPTRPTLLPPQEFRVLRGNM | not soluble |
| MLLNEASDAIYWVNHKGLITYANPSAQILFGYEEVELKDKSISDLIVSKTDLFSTFSSNIIEEKGVVIQQEFVRKDNSTFYGEMSVRLFDDGSHQAIIRDITKGVIEQRLLLDRERKFKILVENAFDIIIVLSSDFKIKFISPAIKKMLGYEIDSVLGENSNKFIEFRDRVMIKEVLKNHGITYAINDLKLIHKNGQIIHCEVNAVNFLNDPLINGIIVNCHDISKRIQTENELINTNYELDSFVYKVSHDLKAPLRSMLGLINLSQKENTEDTVKLYLDMMVRSIHNMDIFIKDLTQFSRNSRMEVIKESIDFKELITKIENNLKYDDNARFISFERNISQQSLFYSDPNRVETIVSNLLSNAYKYHRFDSNNPYINVKIEVSETAACIVIKDNGSGIADEYHNKIFQMFFRASEKSQGSGLGLYIVKSAIDKLEGTITLHSIPDKESTFTVEIPNLLTR | not soluble |
| MTKSILLVGVGGQGTILASKLLTMGLMEAGYDVKMSEIHGMSQRGGSVSSQVRYGDCVHSPVIEIGGADILVSFEKMEALRWFNYLKPEGKALVNNHRIDSMTVLIGGAEYQESDIDAELSRLNAKVINAADKAEELGNSKIMNVILLGCLVKSMQLESIDWEKIISENVKPKFVELNIKAFHEGMEMVSK | not soluble |
| GGDGNITTENIPVSEYDCLELEGGGMVVNYTQSDAPEGLEIKTDRNIFEKYEFNVENHKLKIRPKKEFRKHTNFRPTEFMVTANSRNLKKLAAAGSTHVNINSPLQAEEFEAGLAGSGIIQFHDTASFTNLKIEIAGSGDFVGHKVYCEELNGDMAGSNTIVLGGTVGIAEFSIAGSGTVRAFDCTMDELECKIAGSGDIEAFVVNKIKAEIAGSGSVKYKGDPQDIQKKVMGSGKIEKVE | soluble |
| METQDVVAKHYDELASEDRATRKSSKILSLRNLNNWVKSVLIALHTRPGYSVLDLACGKGGDLQKWQSQQITQYVGCDISKESLKTAQQRYQQLKKCTFTAQFLCGDCFSCRLSRYLEPDRNFHIVSCQFSMHYAFSCEEKVRRLLENVTERLVAGGFFIGTIPDSNVLVRKLRASSGLEFGNEFYRVVFDDSSSKTFTKPFGIRYHFYLESSVLDIPEYLVVMPVFEKLAKGYGLELQLVMNFHEFITMYLSAGSPFISLFHRMNILQDGGLSPEFWDTAYLYTVFAMKKQGASPWLGLSPESISYVDNTSFERKVIVMMDDEELDSERITFVDKEWNEMIPKRIKLQK | soluble |
| MKIQDLLKKEVMIMDLKATSKEAAIDEMITKLVDTGVVTNFAIFKDGIMKREAQTSTGLGDGIAMPHSKNAAVKEATVLFAKSASGVDYEALDGQPTDLFFMIAAPDGANDTHLAALAELSKYLLKEGFADQLRQAKTPDDIIATFDS | soluble |
| MNRSNAQTERGRRWYVGDRLHVDVRGLPCPEPLVTVLRLIDGSEVGDGLTALVSQEPLLLYPELDARGCRYRMVTPAGDTLLRDGEVVLEIERSK | not soluble |
| MATANNPPSGLLDPTLCEDRIFYNILEIEPRFLTSDSVFGTFQQSLTSHMRKLLGTWMFSVCQEYNLEPNVVALALNLLDRLLLIKQVSKEHFQKTGSACLLVASKLRSLTPISTSSLCYAAADSFSRQELIDQEKELLEKLAWRTEAVLATDVTSFLLLKLVGGSQHLDFWHHEVNTLITKALVDPLTGSLPASIISAAGCALLVPANVIPQDTHSGGVVPQLASILGCDVSVLQAAVEQILTSVSDFDLRILDSY | soluble |
| MGSDKIHHHHHHMPVGRGVSVGLLPKSQSPLIGVDISSTAVKLLQLSRSGNRFRVEHYAVEPLPPNAVVEKNIVEVEAVGEAIRRAINRSGSKAKNAAAAVAGSAVITKLIPMPADLDDSDLEAQVELEATNYIPYPIEEVNLDFEVLGPMPNSPDMVQVLLAASRSENVELRQSALELGGLVAKVMDVEAFAVENAFALVASELPVAADAVVALVDIGATMTTLSVLRSGRSLYSREQVFGGKQLTDEVMRRYGLTYEEAGLAKRQGGLPESYEVEVLEPFKEATVQQISRLLQFFYAGSEFNRVDCIVLAGGCAALSRLPEMVEEQLGVTTVVANPLAQMTLGPKVQAHALALDAPALMIATGLALRSFD | not soluble |
| MTGKKTLSIVGASGYAGGEFLRLALSHPYLEVKQVTSRRFAGEPVHFVHPNLRGRTNLKFVPPEKLEPADILVLALPHGVFAREFDRYSALAPVLVDLSADFRLKDPELYRRYYGEHPRPDLLGRFVYAVPELYREALKGADWIAGAGCNATATLLGLYPLLKAGVLKPTPIFVTLLISTSAGGAEASPASHHPERAGSIRVYKPTGHRHTAEVVENLPGRPEVHLTAIATDRVRGILMTAQCFVQDGWSERDVWQAYREAYAGEPFIRLVKQKKGVHRYPDPRFVQGTNYADIGFELEEDTGRLVVMTAIDNLVKGTAGHALQALNVRMGWPETLGLDFPGLHP | soluble |
| MEWIKQILAKHMKEDGTLDMEAANKEIDKEFPVNAVPKDQYNNLSSQLAEANKTLKSLEAKTKDNPDVQKELADLKEKADALEKENKDLKINSQVSAALQSAGAKDIDYALFKLGELELDKDGNVKDLESKVKDLKASIPDYFEKKDTLDDKSKKKTENKAGYQPIDNKLPKGKEPNEKDPFEAILSKYE | not soluble |
| MGSDKIHHHHHHMSAAVERSPEEKRVIPVALSSASVYPLSVHDAFAVAQDLGFDGVEVMVTNNATSQSPHSLLELSHRYRQPIVSIHAPTLLLTQKVWGSAWNKIEMSCRMAREVGCGTVVVHPPFRWQNNYAENFPAGIRQLADMYQVRIAVENMYPWRVRGRETVAYLPHWDPLGQDYDDVTWDFSHAATAGANSVEAIKALGGKLRHIHLTDGSGSGRDEHLIPGRGNQGCAEALQHLAGSGFDGVVVAEISTRRAKFAGERELWLNETLKFARQHLSHPLVGAREA | not soluble |
| MNPIVVLGSKVVDGQVTGLLASRLEKAIEVSSLTPEAPVVVSGFGEAAAMADYLRARGVTTIVEEPWATSTNENLENAHALFPDTLQWTVVTSGFHAWRTYLWAWHLGIPIKVVTARTPSAERLGMAMRECFALPHSTLRVLWRKIRTPKNLEHHHHHH | soluble |
| MGSDKIHHHHHHMNETGLLDAYGTEEKEAYIGVIASIATADRVATEDELEYLNALSEAVGINPDVAEAAAKDRSDESLSKYLNALKGSDLRFSLITDIVSFARSDGRYTADEEEKIKNSCRYLGITDEQVTVLEELVEKSNILITIPEEATDEGFFEKNGFSQMLKKANIPLISIVKGLLGLAAPFVLSKMVRSRSLSGSPAAGGLGGQLGGTVLGTFQAGRIGGLGSILANLNGIRGYADIGTILKKAIDKKEINS | not soluble |
| MSGKRISREKLTIKKMIDLYQAKCPQASAEPEHYEALFVYAQKRLDKCVFGEEKPACKQCPVHCYQPAKREEMKQIMRWAGPRMLWRHPILTVRHLIDDKRPVPELPEKYRPKKPRE | not soluble |
| MSLSDPNTSGSGVVGESSGVRVAIEGCGHGCLHSIYASVERAAALKGWDGVDLLIIGGDFQAVRNSNDMACMSVPNKYKEIGDFHEYYSGQRTAPYLTIFVGGNHEASNHLFELYYGGWVAPNIYYMGAANVLRFGPLRIAGLSGIWKGRDYRKPHFERLPYNDDDIKSIYHVRELDVRKLLQVRTQIDVGLSHDWPRQIEYCGDWQQLFRAKPLFRRDSQNGTLGSTAAEYVLNRLRPAYWFSAHLHVKFAASVQHGPQEVVPNRQYGLDGASLTSMLSETEEASRQTGYSQAEAEPNAHAVSETGTTEEGHHHHHH | soluble |
| GPGSMLLERQQLVQALQLSYHCSAACATSTVNSYYPDEEKCRATVQGKMTAPFVLAVGMVPKQREYVDSLRDDLAVAFQHFPYLNGTAKPPDKEEQKGCAKAVASGERGRNGRASSPASIDWAGVRARLLSPKKVPLWYMHTELVFPGDTHDVRIYENAYQSLIVKEGFSYVIGCYASGDGVVPALDYVNARLCGESVQSLAQRIGFDDDVVEALEGLEAEVPTRVYTRVNAFGNNPATSRSSRQDKGHAQQVLKEAGLAYVRSYVTTRADEAVAKVEDGTLLLPVVVKPNSGAGSEFVTLCYTVDDIRVAFSMVEGVRTSQGTDAAQLVVEEYIEGPEYVVNTVSYQGVHVVTDVWESWKYPEPVVTTGLTRSAEEALRAAGIKRQKQRKISILYDRQTLITNLADLPATHSARRIVEYTLKCLDALGLENGCGHSEVRLDTRKAARELRRHEQRRPKTNSPLGKVKDEHLDEGEPILIELNSRMQGDIPRSTDVIGYDQYSLLVYISEAVNVFGAATAASTALPFRVDSSRPQRVGEIPWPPVPRLYRARPSTGLPLATTVLFLATEEECILNGVALRTLTELGTFQRFTRTIFKPNQPGFVTPLRHTVDLFSSPTSCVMQGPAAAVKADCAAIRSMESAALCSAAKAALFKLTSTIHETERLRENARIIDGRLHAMTEAYRRASAQAGSATDEVADDGREKDEQGTENDCCSSQHDLEALRRSISSLQSELTWVTNNLAADDRQVQLLRTEFAKALASQKPAPLYINYQDFSMMKAAGVGNELAVL | not soluble |
